Measurements reported in paper PMC7782867 (2020).
One block for each binder: values may come before it. Square brackets hold non-standard residues; d marks the D form. Ends that are not written are not given here. pS = N[C@@H](COP(=O)(O)O)C(=O)O

Key:
CRIPT [1] = molecular target: T1, CRIPT (Homo sapiens); test: ITC
T1 chain: YKQTSV

[2] = molecular target: T2, ancestral Eukaryota CRIPT; test: stopped-flow
T2 chain: YKQSSV

CRIPT [3] = molecular target: T1, CRIPT; test: stopped-flow
CRIPT [4] = molecular target: T3, CRIPT (Octopus bimaculoides); test: stopped-flow
T3 chain: YRQSSV

CRIPT [5] = molecular target: T4, CRIPT (Hydra vulgaris); test: stopped-flow
T4 chain: YRQTSC

CRIPT [6] = molecular target: T5, CRIPT (Drosophila melanogaster); test: ITC
T5 chain: YRQSST

CRIPT [7] = molecular target: T6, CRIPT (Drosophila melanogaster); test: ITC
T6 chain: GKKIMNTKNYKQSST

CRIPT [8] = molecular target: T7, CRIPT (Drosophila melanogaster); test: ITC
T7 chain: YRQS[pS]T

B1: DLG4 PDZ3 PDZ3 (protein)
chain: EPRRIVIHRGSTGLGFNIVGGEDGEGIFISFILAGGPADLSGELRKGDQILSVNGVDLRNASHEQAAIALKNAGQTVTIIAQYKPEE
Kd (CRIPT [1]): 700 nM | Kd [2]: 2180 nM | Kd (CRIPT [3]): 395 nM | Kd (CRIPT [4]): 1240 nM | Kd (CRIPT [5]): 360 nM

Kd (CRIPT [6]): 27000 nM | Kd [2]: 670 nM
B2: DLG PDZ3 PDZ3 (protein)
chain: EPRTITIQKGPQGLGFNIVGGEDGQGIYVSFILAGGPADLGSELKRGDQLLSVNNVNLTHATHEEAAQALKTSGGVVTLLAQYRPEEY

Kd (CRIPT [7]): 34000 nM | Kd (CRIPT [8]): 40000 nM
B3: DLG PDZ3 α3 PDZ3-α3 (protein)
chain: REPRTITIQKGPQGLGFNIVGGEDGQGIYVSFILAGGPADLGSELKRGDQLLSVNNVNLTHATHEEAAQALKTSGGVVTLLAQYRPEEYNRFEARI
